This assay concerns the target purified human factor D (from human plasma) (human, UniProt P00746 26-253). Briefly: Biacore SPR. (In general: SPR reads the build-up and loss of mass on a sensor chip optically.)

Sequence of purified human factor D (from human plasma) (P00746 26-253): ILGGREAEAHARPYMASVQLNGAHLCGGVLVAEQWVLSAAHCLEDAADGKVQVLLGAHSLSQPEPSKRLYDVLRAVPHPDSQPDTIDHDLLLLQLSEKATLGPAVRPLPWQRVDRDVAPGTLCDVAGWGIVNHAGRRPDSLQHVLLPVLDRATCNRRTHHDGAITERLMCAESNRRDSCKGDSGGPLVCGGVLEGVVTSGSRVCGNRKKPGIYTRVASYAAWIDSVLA

B1: recombinant chimeric 11-8A1 (variable region of 11-8A1 + constant region of human IgG4) (antibody, V domains shown)
VH: EVQLQQSGADLVRPGASVKLSCTTSGFNIKDTYVHWVKQRPEQGLEWIGRIDPANGLTTFDPRFQAKATITADTSSNTAYLQLSSLTSEDTAVYYCTYAMEYWGQGTSVTVSS
VL: QIVLTQSPAIMSASPGERVTMTCSARSDVSYMYWYQQKPGSSPRLLIYDTSNLASGVPVRFSASGSGTSYSLTISRMEAEDAATYYCQQWSSYPPWTFGGGTKLEIK
One may read the Kd as a measure of binding affinity in units of concentration. The low end stands for higher affinity, the high end for lower affinity. B1 yielded a Kd of 153 pM.

B2: mAb 11-8A1 (hybridoma-derived murine anti-human factor D monoclonal antibody) (antibody, V domains shown)
VH: EVQLQQSGADLVRPGASVKLSCTTSGFNIKDTYVHWVKQRPEQGLEWIGRIDPANGLTTFDPRFQAKATITADTSSNTAYLQLSSLTSEDTAVYYCTYAMEYWGQGTSVTVSS
VL: QIVLTQSPAIMSASPGERVTMTCSARSDVSYMYWYQQKPGSSPRLLIYDTSNLASGVPVRFSASGSGTSYSLTISRMEAEDAATYYCQQWSSYPPWTFGGGTKLEIKR
As for B2, binding was characterised by a dissociation constant (Kd) of 148 pM.

(Values after patent publication US20230032737A1 (published 2023).)
